Assay results published in publication PMC3424314 (Journal of immunology (Baltimore, Md. : 1950), 2012).

Target: CD40 receptor on a stable CHO cell line (Homo sapiens, UniProt P25942)
Assay: flow cytometry on cells

Sequence of CD40 receptor on a stable CHO cell line (P25942 21-277): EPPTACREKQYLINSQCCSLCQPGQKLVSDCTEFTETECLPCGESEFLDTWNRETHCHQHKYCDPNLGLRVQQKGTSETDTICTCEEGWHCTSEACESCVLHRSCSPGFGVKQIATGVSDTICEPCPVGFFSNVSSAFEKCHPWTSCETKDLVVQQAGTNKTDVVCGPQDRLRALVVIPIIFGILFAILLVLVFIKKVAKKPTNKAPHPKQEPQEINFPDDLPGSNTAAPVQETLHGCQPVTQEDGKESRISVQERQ

B1: anti-CD40 rAb with H chain C-terminal dockerin (antibody, V domains shown)
VH: EVKLVESGGGLVQPGGSLKLSCATSGFTFSDYYMYWVRQTPEKRLEWVAYINSGGGSTYYPDTVKGRFTISRDNAKNTLYLQMSRLKSEDTAMYYCARRGLPFHAMDYWGQGTSVTVSS
VL: DIQMTQTTSSLSASLGDRVTISCSASQGISNYLNWYQQKPDGTVKLLIYYTSILHSGVPSRFSGSGSGTDYSLTIGNLEPEDIATYYCQQFNKLPPTFGGGTKLEIK
B1: binds.

B2: recombinant anti-CD40 rAb (antibody, V domains shown)
VH: B1 VH
VL: B1 VL
B2: binds.
